Drawing on US20230141630, this text covers activity and activity (copies per cDNA) for three sequences.

Series [1] has as its system Group II Intron-RT (unspecified). To be noted: 1 h at 55 C, Induro buffer, 1 ug circRNA, 100 ng RT.
In series [2] the test system is Induro RT (Group II Intron-RT). To be noted: 5'-phosphate primer; 50 C 30 min, 10 mM DTT; peak cDNA 7.2 kb.
Series [3] deals with Induro RT (Group II Intron-RT). Conditions: [none]; 38 C 5 min then 60 C 30 min.

Like-named read-outs stand apart in the source and are kept apart here.

Regarding “AAAATCCGTTGACCTTAAACGGTCGTGTGGGTTCAAGTCCCTCCACCCCCACGCCGGAAACGCAATAGCCGAAAAACAAAAAACAAAAAAACCCCCCTCTCCCTCCCCCCCTAACGTTACTGGCCGAAGCCGCTTGGAATAAGGCCGGTGTGCGTTTGTCTATATGTTATTTTCCACCATATTGCCGTCTTTTGGCAATGTGAGGGCCCGGAAACCTGGCCCTGTCTTCTTGACGAGCATTCCTAGGGGTCTTTCCCCTCTCGCCAAAGGAATGCAAGGTCTGTTGAATGTCGTAAAAAAACAAAAAACAAAACGGCTATTATGCGTTACCGGCGAGACGCTACGGACTT / TCCAGAGGAACTGCTTCCTTC [circRNA 0.4 kb with DNA primer]”, the activity in series [1] was found to be 4.5 µg cDNA.
With “GGATTCTAAAACGGATTACCAGGGATTTCAGTCGATGTACACGTTCGTCACATCTCATCTACCTCCCGGTTTTAATGAATACGATTTTGTACCAGAGTCCTTTGATCGTGACAAAACAATTGCACTGATAATGAATTCCTCTGGATCTACTGGGTTACCTAAGGGTGTGGCCCTTCCGCATAGAACTGCCTGCGTCAGATTCTCGCATGCCAGAGATCCTATTTTTGGCAATCAAATCATTCCGGATACTGCGATTTTAAGTGTTGTTCCATTCCATCACGGTTTTGGAATGTTTACTACACTCGGATATTTGATATGTGGATTTCGAGTCGTCTTAATGTATAGATTTGAAGAAGAGCTGTTTTTACGATCCCTTCAGGATTACAAAATTCAAAGTGCGTTGCTAGTACCAACCCTATTTTCATTCTTCGCCAAAAGCACTCTGATTGACAAATACGATTTATCTAATTTACACGAAATTGCTTCTGGGGGCGCACCTCTTTCGAAAGAAGTCGGGGAAGCGGTTGCAAAACGCTTCCATCTTCCAGGGATACGACAAGGATATGGGCTCACTGAGACTACATCAGCTATTCTGATTACACCCGAGGGGGATGATAAACCGGGCGCGGTCGGTAAAGTTGTTCCATTTTTTGAAGCGAAGGTTGTGGATCTGGATACCGGGAAAACGCTGGGCGTTAATCAGAGAGGCGAATTATGTGTCAGAGGACCTATGATTATGTCCGGTTATGTAAACAATCCGGAAGCGACCAACGCCTTGATTGACAAGGATGGATGGCTACATTCTGGAGACATAGCTTACTGGGACGAAGACGAACACTTCTTCATAGTTGACCGCTTGAAGTCTTTAATTAAATACAAAGGATATCAGGTGGCCCCCGCTGAATTGGAATCGATATTGTTACAACACCCCAACATCTTCGACGCGGGCGTGGCAGGTCTTCCCGACGATGACGCCGGTGAACTTCCCGCCGCCGTTGTTGTTTTGGAGCACGGAAAGACGATGACGGAAAAAGAGATCGTGGATTACGTCGCCAGTCAAGTAACAACCGCGAAAAAGTTGCGCGGAGGAGTTGTGTTTGTGGACGAAGTACCGAAAGGTCTTACCGGAAAACTCGACGCAAGAAAAATCAGAGAGATCCTCATAAAGGCCAAGAAGGGCGGAAAGTCCAAACTCGAGTAAGGTTAACCTGCAGGGAAAAAACAAAAAACAAAACGGCTATTATGCGTTACCGGCGAGACGCTACGGACTT / ACTTGCCTGTCGCTCTATCTTCTTTGTTTTTTCCCTGCAGGTTAACCTTACTC [circRNA 1.8 kb with RT primer]”, in series [2], the activity (copies per cDNA) was 4.
As to “UGAGGUAGUAGGUUGUAUAGUUUACUGACCAGGACGACGACA / TGTCGTCGTCCTGGTCAGTA [42 nt circularized small RNA with RT primer]”, in series [3], the activity (copies per cDNA) is > 100.
